Experiment: yeast display, Sf9 membrane polyspecificity reagent, FACS + sequencing; frameworks hold sequencing errors
In short: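 Polyreactivity labels are assigned by the sorting gate from which each nanobody was recovered. The gates were low and high (top ~1%), set on anti-HA fluorescence for expression and streptavidin fluorescence for reagent binding. Before sorting, galactose-induced (36–48 hours) yeast display cells were stained for 1 hour at 4 °C with 10% biotinylated, detergent-solubilized Sf9 membrane reagent.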

Sequence	polyreactivity (PSR sort gate)
QVQLVESGGGLVQAGGSLRLSCAASGIIFDYYAMGWYRQAPGKERELVATITGNSTNTYYADSVKGRFTISRDNAKNTVYLQMNSLKPEDTAVYYCATAQTRWWPSIAGYDYWGQGTQVTVSS	high polyreactivity
QVQLVESGGGLVQAGGTLRLSCAASGRIFSDYAMGWYRQAPGKEREFVAAISSSGGRTYYADSVKGRFTISRDNAKNTVYLQMNSLKPEDTAVYYCNRYNGYYNTGRYGYLGQGTQVTVSS	high polyreactivity
QVQLVESGGGLVQAGGSLRLSCAASGLTFGGYVMGWYRQAPGKERELVAAISGSGGRTYYADSVKGRFTISRDNAKNTVYLQRNSLKPEDTAVYDCARPPRGPPRGYYWGQGTQVTVSS	high polyreactivity
QDQLVESGGGLVQAGGSLRLSCASSGSTFYYKAMGWSRQEPGKERELVARISRSGGSTYADSVKGRFTISRDNAKYTVYLQMNSLKPEDTAVYYCNADAYGTPEFTSYAVRYDYWGQGTQVTVSS	low polyreactivity
QVQLVESGGGLVQAGGSLRLSCAASGRTFAKYAMGWYRQAPGKERELVAAINSSGGSTYYADSVKGRFTISRDNAKNTVYLQMNSLKPEDTAVYYCAALGIGSYRRYSGYDYWGQGTQVTVSS	low polyreactivity
QVQLVESGGGLVQAGGSLRLSCAASGSTFPYNVMGWYRPAPGKERELVAAISYSGGNTYYADSVKGRFTISRDNAKNTVYLQMNSLKPEDTAVYYCAKARRGGRGSIKYDYWGQGTQVTVSS	high polyreactivity
QVQLVESGGGLVQAGGSLRLSCAASGSTFYFNTMGWYRQAPGKERELVAAIRRSSGSTYYADSVKGRFTISRDNAKNTVYLQMNSLKPEDTAVYYCAADNAVTRYGRIDRDYWGQGTQVTVSS	low polyreactivity
QVHLVESGGGLVQAGGSLRLSCAASGFTFRVYAMGWYRPAPGKERELVAAITKRGGSTYYADSVKGRFTISRDNAKNTVYLQMNSLKPEDTAGYYCATENTPHYASHGYWGQGTQVTVSS	high polyreactivity
QVQLEESGGGLVQAGGSLRLSSAASGSTFYIYVMGWYSQAPGKERELVARISSSGGSTYYADSVKGRFTISRDNAKNSVYLQMNSLKPVDTAVYYCNVDYGAWYDYWGQGTQVTVSS	low polyreactivity
QVQLVESVGGLVQAGGSLRLSCAASGSIFWPNAMGWYRQAPGKERELVATISGSGGSTYYADSVKGRFTISRDNAKNTVYLQMNSLKPEDTAVYYCAADYRYGRYDYWGQGTQVTVSS	high polyreactivity
QVQLVESGGGLVQAGGSLRLSCAASGRIFGLYAMGWYRQAPGKERELVAAITSSTGSTYYADSVKGRFTISRDNAKNTVYLQMNSLKPEDTAVYYCAARRYGRNWHYDYWGQGTQVTVSS	high polyreactivity
QVQLVESGGGLVQAGGSLRLSCAASGRIFKIYAMGWYRQAPGKERELVAAISGRGGSTYYADSVKGRFTISRDNAKNTVYLQMNSLKPEDTAVYYCAAVGYGFSAYSTYDYWGQGTQVTVSS	high polyreactivity
HVQLVESGGGLVQAGGSLRLSCAASGSIYHIYSMGRYRQAPGKERELVAAISFSGGSTYYADSVKGRFTISRDNAKNTVYLQMNSLKPEDNAVYYCAADVYWLPYYYWGQGTLVTVSS	high polyreactivity
QVQLVESGGGLVQAGGSLRLSCAASGLTFWYNAMGWYRQAPGKERELVAAINSGGRTNYADSVKGRFTISRDNAKNTVYLQMNSLKPEDTAVYYCAAVRHWTVGWTYYYWGQGTQVTVSS	high polyreactivity
QVQLVESGGGLVQAGGSLRLSCAASGSIFYVNAMGWNRQPPGKERELVAGITSGGRTNYADSVKGRFTISRDNAKNSVYLQMNSLKPEDTAVYYCATEIRITGLYRYDYWGQGTQVTVSS	low polyreactivity
QVQLVESGGGLVQAGGSLRLSCAASGRIFSEYAMGGDRQAPGKERELVATITSGDSTIYADSVKGRFTISRDNAKNTVYVQMNSLKPDDTAVYYCNPDRFADYDYWGHGTQVTVSS	low polyreactivity
QVKLVESGGGLVQAGGSLRLSCAASGFTIRSYVMGWYRQAPGKERELVAAIRRSGGSTYYADSVKGRFTISRDNAKNTVYFQMNSLKREDTAVYYCAAYIWWRDYIEFDYWGQGTQVTVSS	high polyreactivity
QVQLEESGGGLVQAGGSLRLSCAASGRTFSYNAMGWYRQPPGKEREFVAAITWRGSSTYYADSVKWRFTISRDYEKNTVYLQMNSLIPDDTAVYECNARATNVIWGRYDYWGQGTQVTVSS	high polyreactivity
QVQRVESGGGLVQAGGRLRLICAAAGYTFDYYAMGWYRQAPGKERELVAAISRSGTRTYYADSVKGRFTISRDNAKNTVYLQMYSLKPEVNAVYYLKKAYYLYAGDYWGQGTQVTVSS	high polyreactivity
QVQLVESGGGLVQAGGSLRLSCAASGSTFVHYAMGWYRQAPGKERELVAAITISGGRTYYADSVKGRFTISRDNAKNTVYLQMNSLKAEDTAVYYCNADHYHRTWGYDYWGQGTQVTVSS	low polyreactivity
QVQLVESGGGLVQAGGSLRLSCAASGYIFILYAKGWYRQATGKERQLVATISSNAVSTYYADSVKGRFTISRDNAKITVYLQMNSLKPEDTAVYYCNVEYTPNTVSGYDYWGQGTQVTVSS	low polyreactivity
QVQLVESGGGLVQAGGSLRLSCAASGSIFGNAMGWYRQAPGKEREVVAAISSSGSSTYYADSVKGRFTISRDNAKNTVYFQMNSLKPEDTAVYYCAKRRRSAAPKYDYWGQGTQVTVSS	high polyreactivity

Sequence	polyreactivity (PSR sort gate)
QVQLVESGGGLVQAGGSLRLSCAASGSIFSSYAMGWYRQAPGKERELVASISRRGGSTYYADSVKGRFTISRDKAKNTVYLQMNSLKPEDTAVYYCTASGGPYRYYYWGQGTQVTVSS	low polyreactivity
QVQLVESGGGLVQAGGSLRLSCAASGSIFWGYAMGWYRQAPGKERELVASSTNYADSVKGRFTISRDNAKNTVYLQMNSLKPEDTAVYYCAREQGVNRNHDYWGQGTQVTVSS	low polyreactivity
QVQHLESGGGLVQAGRSLRLSCAASGSTFITNTMGWYIKATGKERELLAAISKSGGSTYYADSVKGRFTISRDNAKNTVYLQMNSLKPEDTAVYYCAADIYVRDRGVKYDYWGQGTQVTVSS	low polyreactivity
QVQLVESGGGLVQAGGSLRLSCADSGFIFWYYAMGWYRQAPGKERELVAAISWSGDSTYYADSVKWRFTISRDTANNTVYLQMNSLKPEDTAVYYCAVYDELDVFYNGYDYWGQGTQVTVSS	high polyreactivity
QDQLVESGGGLVQAGGSLRLSCAASGRTFTGYTMGWYRQAPGKERELVASISSSGGRTYYADSVKGRFTISRDNAKNTVFLQMKSLKPEDTAVYYCAKRGAYGYGYYSYDYWGQGTQVTVSS	high polyreactivity
QVQLVESGGGLVQSGCSLRLSCAASGRIFDRYAMGSYRQAPGKERELVAAISSSGGSTYYADSVKGRFTISRDHAKNTVYLLMNSLKPEDTAVYYCATGTSRYRHQRDYWGQGTQVTVSS	high polyreactivity
QVQLVESGGGLVQAGGSLRLSCAASGSIFVSYAMGWYRQAPGKERELVAAISISDGSTYADSVKGRFTISRDNAKNTVYLQMNSLKPEDTAVYYCATYLVYDYAYVAYDYWGQGTQVTVSS	low polyreactivity
QVQLVESGGGLVQEGGSLRLSCAASGLTFYYYAMGWYRPAPGKERELVAAISRSGGSTYYADSVKGRFTISRDNAKITVYLQMNSLIPEDTAVYYCASRDHAGYYKYDYWGQGTQVTVSS	high polyreactivity
QVQLVESGGGLVQAGGSLRLSCAASGRIFFPYAMGWYRQAPGKERELVAVITSGGTTYYADSVKGRFRISRDNAKNTVYLQMNSLKTEDTAVYYCAVHWYSYRYAATMDYWGQGTQVTVSS	high polyreactivity
QVQLVESGGGLVQAGGSLRLSCAASGSTIYENAMGWYRQAPGKERELVAGISRGGGSTYYADSVKGRFTISRDNAKNTVYLQMNSLKPEDTAVYYCAAGSRVQGGYWGQGTQVTVSS	low polyreactivity
QVQLVESGGGLVQAGGILRLSCAASGITFGGYAMAWYRQAPGKERELVAAISRGGGSTNYADSVKGRFTISRDNAKNTVYLQINSLKPEDTAVYYCNARRQNSRYDYWGQGTQVTVSS	low polyreactivity
QVQLVESGGGLVQAGGSLRLSCAASGFTFDDYTMGWYRQAPGKEREFVAAISSSGGSTYYADSVKGRFTISRDNAKNTVYLQMNSLKPEDTAVYYCAADARYYDYYEYDYWGQGTQVTVSS	high polyreactivity
QVQLVESGGGLVQAGGSLRLSCAASGSIFYVYAMGRYRQAPGKERELVASITRRRTNYADSVKVRFTISRDNAKNTVYLQMNSLKPEDTAVYYCAATTYVRQYATYDYWGQGTQVTVSS	high polyreactivity
QVQLVESGGGLVQAGGSLRLSCAASGSIFRSYAMGWYRQAPGKERELVAAIRSDGRTNYADSVKGRFTISRDNAKNTVYFQMNSLKPEDTAVYYCDANAYYSYWRSMDYWGQGTQVTVSS	low polyreactivity
QVQLVESGGGLVQAGGSLRLSCAASGIIFIKYAMGWYRQAPGKERELVAAITSGGSTHYADSVKGRFTISRDNAKNTVYLQMNSLKPEETAVYYCNADILRHVAYFKDRYQAGSYWGQGTQVTVSS	low polyreactivity
QVRLVESGGGLVQAGGSLRLSCAASGRIFVGYGLGWYRQAHGKERELVAAITSSGGSTYYADSVKGRFTISRDNAKNTVYLQMNSLKPEDTAVYYCAAERGYHGGVSGLYDYWGQGTQVTVSS	low polyreactivity
QVQLVESGGGLVQAGGSLRLSCAASGRIFARYAMGWYRQAPGKERELVAAITGGGRTNYADSVKGRFTISRDNAKNTVYLQMNSLKPEDTAVYYCAADTGYQNGKGLGYQNFGGYYWGQGTQVTVSS	high polyreactivity
QVQLVESGGGLVQAGGSLRLSCAASGSILTDNAMRWYRQAPGKERELVAAITSGGYTYYADSVKGRFTISRDNAKNTVYLHMNILKPEDTAVYYCNADPYTYSYGMYYWGQGTQVTVSS	low polyreactivity
QVQLVESGGGLVQAGGSLRLSCAASGNTLYSYAMGWYRQAPGKERELVAAITKSGGRTYYADSVKGRFTISRDNAKNTVYLQMNSLKPEDTADYYCNAVFLPTYHFDYWGQGTQVTVSS	high polyreactivity
QVQLVESRGGLVQAGGSLRLSCAASGSTILQYAMGWYRQAPGNERELVAAIRFSTGTTYYADSVKGRFTISRDTANNTVYLQMNSLKPEDTAVYYCAALARTRGRKYGYWGHGTQVTVSS	high polyreactivity
QVQLVESGGGLVQAGGSLRLSCAASGSTFSRNAMGWYRQAPGKEREFVAAISTSGDSTYYADSVKGRFTISRDNAKNTVYLQMNSLKPEDTAVYYCADDGFWIAYQEGDYWGQGTQVTVSS	low polyreactivity
